Reference: patent US10501734B2, “Compositions and methods of use thereof for making polypeptides with many instances of nonstandard amino acids” (Yale University, priority 2014, dated 2019)
Non-standard residues stand in square brackets, D forms with d. Phe(4-N3) = [N-]=[N+]=Nc1ccc(C[C@H](N)C(=O)O)cc1

Target: BSA (Bos taurus, UniProt P02769)
Assay: Binding to BSA coated agarose beads, GFP fluorescence
Conditions: palmitic acid conjugated; 30 vs. 1 pAzF instances
Description: When supplied with insufficient amounts of alkyne (a ratio of 0.125, 0.25 and 0.5 alkyne:azide), a partial shift was observed as well as a “smear” of the protein band that signifies stochastic reaction of less than 30 sites. In contrast, when sufficient alkyne was supplied, a sharp band is apparent with a consistent size shift compared with the unreacted control. Next, ELP-GFP containing either 30 azide groups or a single azide group and 30 tyrosine groups were contacted with BSA coated agarose beads. The beads were subsequently washed and the amount of protein bound to the beads was measured via GFP fluorescence. The results are illustrated in FIG. 11.

Sequence of BSA (P02769 25-607): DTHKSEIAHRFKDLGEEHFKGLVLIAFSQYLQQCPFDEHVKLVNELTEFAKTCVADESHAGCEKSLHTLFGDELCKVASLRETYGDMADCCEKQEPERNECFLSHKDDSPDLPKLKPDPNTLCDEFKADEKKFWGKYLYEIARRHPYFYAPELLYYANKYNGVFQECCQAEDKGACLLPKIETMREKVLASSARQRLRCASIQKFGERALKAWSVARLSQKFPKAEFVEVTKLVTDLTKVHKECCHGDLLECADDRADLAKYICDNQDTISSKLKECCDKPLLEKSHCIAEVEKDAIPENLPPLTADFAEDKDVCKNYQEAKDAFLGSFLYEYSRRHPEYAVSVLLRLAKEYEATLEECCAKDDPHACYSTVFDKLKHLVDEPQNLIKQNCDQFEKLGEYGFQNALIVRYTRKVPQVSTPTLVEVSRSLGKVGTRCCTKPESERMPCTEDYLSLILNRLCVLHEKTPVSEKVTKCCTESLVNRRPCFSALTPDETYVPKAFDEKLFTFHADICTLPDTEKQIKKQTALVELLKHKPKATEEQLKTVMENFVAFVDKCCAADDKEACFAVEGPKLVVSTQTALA

B1: ELPs containing 30 pAzF nsAAs: ELP(30TAG)-GFP with 30 pAzF conjugated by click reaction to palmitic acid-alkyne (conjugate)
chain: SKGPGVPGGGVPGAGVPG[Phe(4-N3)](palmitic acid‑alkyne)GVPGGGVPGAGVPG[Phe(4-N3)](palmitic acid‑alkyne)GVPGGGVPGAGVPG[Phe(4-N3)](palmitic acid‑alkyne)GVPGGGVPGAGVPG[Phe(4-N3)](palmitic acid‑alkyne)GVPGGGVPGAGVPG[Phe(4-N3)](palmitic acid‑alkyne)GVPGGGVPGAGVPG[Phe(4-N3)](palmitic acid‑alkyne)GVPGGGVPGAGVPG[Phe(4-N3)](palmitic acid‑alkyne)GVPGGGVPGAGVPG[Phe(4-N3)](palmitic acid‑alkyne)GVPGGGVPGAGVPG[Phe(4-N3)](palmitic acid‑alkyne)GVPGGGVPGAGVPG[Phe(4-N3)](palmitic acid‑alkyne)GVPGGGVPGAGVPG[Phe(4-N3)](palmitic acid‑alkyne)GVPGGGVPGAGVPG[Phe(4-N3)](palmitic acid‑alkyne)GVPGGGVPGAGVPG[Phe(4-N3)](palmitic acid‑alkyne)GVPGGGVPGAGVPG[Phe(4-N3)](palmitic acid‑alkyne)GVPGGGVPGAGVPG[Phe(4-N3)](palmitic acid‑alkyne)GVPGGGVPGAGVPG[Phe(4-N3)](palmitic acid‑alkyne)GVPGGGVPGAGVPG[Phe(4-N3)](palmitic acid‑alkyne)GVPGGGVPGAGVPG[Phe(4-N3)](palmitic acid‑alkyne)GVPGGGVPGAGVPG[Phe(4-N3)](palmitic acid‑alkyne)GVPGGGVPGAGVPG[Phe(4-N3)](palmitic acid‑alkyne)GVPGGGVPGAGVPG[Phe(4-N3)](palmitic acid‑alkyne)GVPGGGVPGAGVPG[Phe(4-N3)](palmitic acid‑alkyne)GVPGGGVPGAGVPG[Phe(4-N3)](palmitic acid‑alkyne)GVPGGGVPGAGVPG[Phe(4-N3)](palmitic acid‑alkyne)GVPGGGVPGAGVPG[Phe(4-N3)](palmitic acid‑alkyne)GVPGGGVPGAGVPG[Phe(4-N3)](palmitic acid‑alkyne)GVPGGGVPGAGVPG[Phe(4-N3)](palmitic acid‑alkyne)GVPGGGVPGAGVPG[Phe(4-N3)](palmitic acid‑alkyne)GVPGGGVPGAGVPG[Phe(4-N3)](palmitic acid‑alkyne)GVPGGGVPGAGVPG[Phe(4-N3)](palmitic acid‑alkyne)GPGGGG-{GFP}
modifications: also: conjugated by click reaction
notes: ELP(30TAG)-GFP with 30 pAzF conjugated by click reaction to palmitic acid-alkyne
- BSA binding: improved BSA binding
